From the DeepSol protein solubility set

Test: soluble on expression in E. coli; label from the status in PepcDB or PDB records

Soluble on expression in E. coli, not soluble:
MGSDKIHHHHHHMTKPDMSKLASLSPFELKDELIKLASSDADRLMLNAGRGNPNFLATIPRHGFWQLGLFAMRESERSFSYMPEGVGGFPRREGIEERFDLFAREFAHVPGVSFLAGAVSYVRDQLGLNAGAFLYEMCEGILACNYPVPDRMLKLSEVIVGQYIRKEMIGNHPFIGEFDLFAVEGGTAAMTYLFNSIRENHLLKAGDTIALGMPIFTPYIEIPELNDYKLVELSVEADPGERWQYSNKELDKLRDPKVKAFFLVNPSNPPSVRMSDESLEYLASIIEERPDLIILTDDVYGTFADNFVSLFAMCPKNTILVYSFSKYFGATGWRLGVIATHRDNVFDEKIAALPDAARKELHERYTSITTEPDKLKFIDRLVADSRTVALNHTAGLSTPQQVQMVLFSLFSLMDTPDNYKIAMKRLIRNRKAALYREIGIAPEADDPNAVDYYTLLDIEALGGKALGPDFVKWVLASVEPNELLFRLAEDAGVVLLPGRGFGTRHPSGRVSLANLNESDYAKIGRSIRKLFEEYVEKYNEATGNKANKHVVKK, MGSDKIHHHHHHMTKRHTETKAYVKTALTTLLTEQSFETLTVSDLTKKAGINRGTFYLHYTDKFDMMNHFKNDTLDDLYRLLNQAEIYTDTRQVLNQTLSYLIEHREFITALATISYLKFPQLIKDFCYQFLTTITGFQDIVTNQYHIPYPYALEVYLASIESIISYWIANGYQETTEEVADIILKAVTLDN, MGSDKIHHHHHHMTKSKNNPGRGNTIRESNTMKVMEEIREKIRKAIKEGVSLREIEEIILQEAMMEEREAYLEVEDDHKNGTYFRYLGTGDGVLRLRVPRTRKGGFRPKILPEKYERTSPDYEDFLQQLVLSGMTPSQVKAVLAAKGIPYSEIVMNRVAERISNKLKEYKSRELPHDLLALYIDVKIVKVRISESIMERAIYIAIGVDLEGNKFVLDYEVRDREDLDGWKSFLSGLVSRGVSRVDVIVSDDFSGLDRVVSTLFPSSQHQLCITHMVRNLMRVLPDKEKEELMIRVRDLKSSRNVEEGRKAILSLSQLVQPFSPARAKRLLDAADKYCSFLNFPREIRHYLYTNNTSESFNLTLARFEEELGGYFPSLRSLEVYLYVSIHESNSRWKFRPMSVIRHYSYHLKQLHASRFQVSLDEDF, MGSDKIHHHHHHMTKVRVAGFGVSLDGFAAGTAQSLDHPLGVRGEEIFQWFFPTRTFRQMLGKEGGDTGLDDRFAQRAMEGFGAFILGRNMFGPVRGEWPDDQWKGWWGDNPPYHAPTFILTHHARPSIEMLGGTTFHFVTGGIEDALEKARKAAGGKDVKIGGGVKTVKQYVQAGYVDEIHLAFAPVALGQGESLFGGLDLRTLGYQTVEHVPTDRATHIVLAK, MGSDKIHHHHHHMTLPMPEKFWDIRIHKVDIHPGVTGLCVGYERGVWRKDQFVRHAMDWLPEFALKESELKGVDSANMVQMVRDAATAIYKSEKFHKRGEFGELFLHMAKRQVFNSIPAVSKIYYKTARNDTVKGFDSVHVVEAEDGLELWLGEVKFYKDLNSAVADVVKELQGHTQTDYLRDEFNLIMNKVDRDWEHYETMKRLMSKNTSLDEVFKRACIPVLLTYESEAICQCSVCDEEYKKLFINEIREAYKLFSSKKLPTDIRIHLFLFPLASKPELIKALDKKLKLWQQL, MGSDKIHHHHHHMTLSDPRFISLNQWLNCYFSDDVTPILISGDASFRRYFRVFAHDTSYIIADSPPALVPIAPFIALSSAYAAAGLTVPKVIASDADQGFMLLSDLGDTQLLSVLTDDNVADYYCRALALLPQVATVVESQDPVSGITQPLPLYDEAFVRRELGIFTEWLLARHLQLELGDEERTLVDESFDLLVKNALAQPKVGMHRDFHSRNLMLKDGGLCVIDFQDAVLGPVTYDAVSLLRDCYIRWPQAMVLELIQQHYQQVLESGHLPEGTSFRQYQSWFDLMGLQRHIKAAGIFARLYYRDNKPAYMADIPLTLAYIVDIARMYPELAPFAAWVESRVIPAFNLPLKQQDKQPGSSR, MGSDKIHHHHHHMTLTTKTIHVIGASFAGLAFVDKYKDLNPDSQIILIDKESCPNYIPNGINQLFRGDIQDLSDAMWGRACLAAQIESNHRFIQAEVLAIEAPSNTLLLKDSQGRVFEEGYETLVCAMGASPQSHYIETSQTNKVLVTKYYEESQASLKLIEASQEVLVIGAGLIGLDLAYSLSLQGKRVKLIEAAERPDFYQTDAELIAPVMAEMSTHHVTFINNKRVTAIHEIEGKVVAHTEQGDTFQGDLAILAINFRPNTHLLQGQVACALDKTILVNENLQTSQANIYAIGDMVSLHFGILGMDYYTPLINQAMKTGQALALHLAGYPIPPLQTVKVLGSSHFDYYRASVGVTEEEAELYMDTCSYLYQNGDSKNLFWLKLIARKTDGILIGAQLLSKTNALVIANQLGQALALKVTDADLAFQDFLFLQGHSDLAYHLHEACLKLFEKRLRHED, MGSDKIHHHHHHMTMIRVNDVLSVGPQPSISEIRSLAGHGFAGMINARPDGEEASQPGNAAEREAAGHADVPYTFIPVTMPTITEADVRAFQRAMADAGGPVFAHCKTGTRALTLYALGEALDGRMSSQDMAALGQKLGIDLSAASRWFEAHRQLRPDVKGFFDPRTGSVQYVVSDPDTRKCAIVDPVLDFDEKSGATTTRNADAMLSYIAENGLSVEWILDTHPHADHFSAAQYLKEKTGAPTAIGAPVVDVQRLWRGIYNWPELRVDGSQWDRLFSDGDTFKVGSMAARVMFSPGHTLASITYVIGNAAFVHDTIFMPDSGTARADFPGGDARVLWKSIQKILDLPDETRLFTGHDYQPGGRAPKWESTVGEQKRANAHLAGVNEEAFAGLRVARDRTLPMPKLILHALQVNIQAGRLPEPEPNGTRYLKFPLDALQGAVW, MGSDKIHHHHHHMTMQQVLDGTATFMEHLGLNEEPLGVYYSDDKPENAFGPKTGVPISRELEESGKLDMREVMKSFTCVMGSIWLARKKHGAAFISQTEYGCPGGVYYCAMLQPHLRFIEHYVSTGFEGTPLQGERYMPDPDAMRNFILRVAPRKAPARYCIFKPLSLFSAQEKPEFIIFFARPEVLTGLFTQTVFTTGDMDCVASPFGAGCTNILGWPLYYKEKGIEKAVIGGFDPSARKFMKTDELTFTVPLSLYEKMLAALPESMFTHETDWKNVRKKVARSAKAWRVRRPGAKQPPPSTCPITY, MGSDKIHHHHHHMTPIRLIIVGLGARALTWIKVARANPDVEIVALCDPDPSARSAAARQFPKLPIGKDITDIIGTAADAVLLATPPRGREAQIEACCTHGLAVLAEKPLSDSVVTAARFVEMAEQAGVPLIVGLNFRYLAVTQEKRRLLADGAIGTPEFGRFIYERWRDGTQDWLNSYPLTMDHPMLWEQSIHHFDLMRYVHGVEPEYVQAHTANPSWTMYEGDTNVSALIGFKGGFHITYQGTWQSGHEPMNFNWRTDGSEGIVVQRAMFGDLAWAKRMEPELTPVDLPAHEAWITDAAALLDRFVAILRGATPECTGRDHLQSLFMLEACILASARRATVTIDEVRALTTPKETS, MGSDKIHHHHHHMTPNPRHWARELWQRSRDRGLQTHIDVLVDATGLDDYPLLAEHARQSDPPALFKLLEQTPEAALADEGPLLLRLEDGHAAWLDELLERIDCRRHLMLLFSPWPLPRLGEHLRSCTQAEWNQGRSSGVLRFYEPGLFMAVSDMLDPRQSCYLHAPVSSWHWLDRDGRPRALAGHYQAHETPPLQAALRLEAHQVAALRAWSEAEAYRREYFVLPREHGLGSQESLLQHLVQAHLAADRQGLQDFDQRDAFVAQWLREQTPGPGFSPAGTSRA, MGSDKIHHHHHHMTPRDTVAAFPATSQQSAIRATPFVWIEPANIPPRKWLYGHHLIRGYVSLTVAPGATGKSSLLIADALAMSANRNLVGTPVYAGRPLRVWIWNLEDPIDELQRRITATAIQYQIHSTDIEGRLFVDSGRDQSLCIARQGHNGIEILDPVIDALQAEILAREIDVLIVDPFVSSHQVSENDNGAIDAVAKKWGAIADRTGCAIELVHHLRKLPHGIEATAESARGAVSLVAAARSVRVLNRMAKEEALQCGLTSNKGHFKVSDDKNNLAAATDSENWFRMESVQLDNGDNVGVVVQWDKPDPFDGITPRHLLAVQKAIDGKDYRQNVQATDWVGQHIGHIVGLDPAKPHDKNRLKSLIKTWINNGALIADEIMNKKGRPTPVIAVGKWVTAAEVAATNVADDEFPLG, MGSDKIHHHHHHMTQKESIRLFEERKVRAIWDDEQEEWYFSIVDVISILTDSPNPRKYWSVLKTRLKREGSELTTNCSQLKMQAADGKKYLTDVANTEQLFRLIQSVPSPKAEPFKLWIAQVAKERLDQMQDPELSIEQAMADYKRLGYSDNWINQRLKSIEIRKDLTDEWKKRGLEEGLHFATLTDIIYKSWSDMTSKEYKRFKGLRKENLRDNMTNKELVLNMLAELSTKEISEASEPDTFSEHINVAQQGGEVARNARLELEAKTGKSVISPLNAQKIISLKKGENERDV, MGSDKIHHHHHHMTQKLPRQATASEESLMRIFTVPEDAESTLSIIEQKLSEDLAGFLGDSIAALEKPLSEIETDFQAFKIPTQPRFVSDYTDEIMQNLVAHSVHTSAPSFIGHMTSALPYFVLPLSKMMVGLNQNLVKIETSKAFTPLERQVLGMMHHLIYAQNTDFYQSWMHSANHSLGAFCSGGTVANITALWIARNQLLKADGEFKGVTREGLLKALRYYGYDDLAILVSERGHYSLGKAVDLLGIGRDNIISIPTDSHNKVDIAKMRKAALELARKNIKVLAIVGVAGTTETGNVDPLIELAALAKELNCHFHVDAAWGGASLLSNKYRHLLAGIELADSVTIDAHKQMYVPMGAGMVLFKNPEFAHAIAHHAEYILRRGSKDLGSQTLEGSRPGMAMLVHACLQIIGLDGYEILINNSIEKARYFAEQIKAHRDFELVTEPELCLLTYRYVPAKVQAAMQVAIEQGDTAKLARFNELLDGLTQFIQKHQREQGKSFVSRTRISPARYFRQATVVFRVVLANPLTSHDILNQVLVEQSEIAALDKEFLPALLAMVAE, MGSDKIHHHHHHMTSELETAANPEKLKRIVIEPVTRVEGHGKVTLLLDEDNRVQQARFHIVEFRGFEKFIQGRPYTEVPVLVQRLCGICPVSHNLAASKAMDVIVGAAPPPAADKLRRLMHMGQMLQSHALHFFHLSSPDLLFGFDAEVGKRNIAGLAMQFPDIARQGVGLRKFGQEVIRMTSGKRVHGTGVIPGGMSKNLSREDRDWLLAEIDQVVRWSQQAVNLIKRLYGEHKDFYNNFGYYRSSFMSLVREDGAMDLYHGNLRAIDDKGQTIFDHVDYSHYGDYIHEEVKSWSYMKFPFIRSQGREEGWYRVGPLARVNNCDFIPTPLAEAERKIFKEYDGGRASHATLSFHWARMIEMLHSAEAIRELLHDDDLLSDDLVNIGERQLRGVGVIEAPRGTLIHHYRINEDEQIVRANLIVATTHNNQAMNEAIRQVSLQYLDGQQLTEGLLNYIEVAIRAFDPCLSCATHALGKMPLEVELVDAEGARVKRIIKDSDGGYRA, MGSDKIHHHHHHMTSMEFKIKRDGLALQARLETPAAPSSTLVILMHGFTADMGYDTTQFVPQLAQALVAHGLAVLRFDFNGHGCSEGRFQDMTVINEIADAKAVLDEALTLHYDHIVLAGHSQGGVVASMLAGYYPDVVDKLILMAPAATLKSDAQQGVLQGATYDPQHIPAYLNIRDGLKVGGFYLRTAQQLPIYEVAQQYAGSVTLIHVTADTVVSPQASEKYHEVYQHSQLHWVQDGGHRFSGDARATAIQLALAAFK
